Experiment: soluble on expression in E. coli; label from the status in PepcDB or PDB records

Sequence	soluble on expression in E. coli
MIKKYTCKNGVRIVMENIPTVRSVAIGIWIHAGSRNENEKNNGISHFLEHMFFKGTETRSAREIAESFDSIGGQVNAFTSKEYTCYYAKVLDEHAKYALDVLADMFFNSTFDEEELKKEKNVVCEEIKMYEDAPDDIVHDMLTKATYETHPLGYPILGTEETLNTFTGDTLRQYIKDHYTPENVVVSIAGNIDEAFLQTVEQYFGSYEGTTNREQVHSPIFHFNKVARKKETEQAHLCLGYKGLQMGHEDIYNLIVLNNVLGGSMSSRLFQEVREQRGLAYSVFSYHSSYEDTGMLTLYGGTGSQQLDTLYETMQETLETLKNTGITEKELINSKEQLKGNLMLSLESTNSRMSRNGKNELLLRKHRSLDEIIESVNTVTKENVDELIRNMFTDEFSAALISPDGKLPKGIKL	not soluble
MVLEVNQAIVNESLQTEQVMEQLSSTVDVIVDNIEKYTNAARYGKGNNYALNNLRTAVQNQFPLVDWLLSTSLSQMIENAWQNGSLPTVTDEDGNVYLKAPLNVFTTPPKDTKGECCWLPFDIAACGGKAPINILCLKDCVDMLNHLLDRKLKVQSNDLIGFFKQAGQTYEEVRDFMNRESMAFYTANTIVNGQLDVTTPILKKFHGLMEILKRPEVFKMQGTNILAAFDSIGYRMDVLGGSFIFAAHPLTVASIKNAIRPNRYGILPDGWTINGESIFYKGAQVLPDKTVPVDVENGTGVIWQLSGESVGVFLGTTLRPAEDYIIRNQFTTTNDVNKGCATECDIYYNLGSVVTNNVARLAVITDVPLAAGINAYSLANLLDRVYVETLAP	not soluble
MFAFSKGPAGSSTYDRVAQKFQDGYEKMRAAIEMDELTKHAGSIQEKLRTAELYKEARSLLKEANEFNIMDIPETRRSEIRDKRQNMMKLEKSAQDRLIAICNEVDPNVKQSRSATVGPSRPASAARVTPRPTRATAPASLPMHQNPVNRAALLNGVDKVIGERLLDEVLDNTGVRMDDVAGCHSAKAALEEAVILPALNPNLFKGLRQPVKGILLFGPPGNGKTLLAKAVAGESKQMFFNISASSLTSKWVGDSEKTIRGLFQIARNAQPSIIFIDEIDSILCERSEKDAEVSRRMKTEFLVQFDGATSSADDRILVIGATNRPHELDDAVLRRFPKRIMLNLPDEEARKELITKTLKKHNMMDGLISSDIRYIASNTSGFSNSDLVALCKEAAMVPIREIDRSKLSMTDGEKIRKIRASDFDTALRTIRPSTSQKIMSKLSDFSRSFGC	not soluble
GERLSMEDAVKLYESDEVEKMGAAANQIMLKWHPEPITTFVIGRNVNYTNFCDTYCRFCAFYRAPGHKEGYVLDDEVILKKIQETIDVGGTEILMQGGTNPDLTIDYYTDLLRNIKERFPNIWMHSFSPAEVWKIAEVSSMSVEEVLRELHEAGLDSMPGGGAEILTEETRLRVSRLKITWEQWINAMKATKKVGMHGTATMVIGFGESFEERALHLQRVRDAQDETECFTAFISWLFQPENTGMYKTKKLTPRDYLKNVAISRLFLDNIPNFQSSWVTMGPEVGKLSLQYGCNDFGSTMIEENVVSAAGTTHKVNTNKILQLIREAGKIPAQR	not soluble
MKMDYILSDFAQKQGYAVESYEIVDSTNYIAQQKAHAGHHGYLWVVAKEQSQGRARRGRTWSSPKGNLYSSLLLVEDIVHQTAAQLGFVAGVSVVETIKQFIKDEKQTSDIVSLKWPNDILLRGAKSSGILLEIFKLPSQQYALVIGIGINVKYHYEDAPYPTSSLKNIGLDIETEQLFTVLTEYFSKNYLLWKQLGGCDRIREKWLLYSAHSGQYVKIVNDEKIIEGIFDGLDNDFNCVIKQKNGQQAVITAGDVHFGSSASVNAGCY	not soluble
LKPHIAVAISGSIYNEAVIKEAFHIAQKEHAKFTAIYIDVFEKNRQYKDSQKQVHQHLMLAKSLGAKVKVVYSQTVALGLDEWCKNQDVTKLIIGQHIRNKWRDFFNTPLIDHLMSFEHS	not soluble
MGSDKIHHHHHHMAMAHGRRRVFGSVEHRKIDMSFRPLFGSGRIRTAGEQPAQPTTASWPGSSVVFDRRRWTCREAELRWTAPHHVLVLTEEGATSQTSIRSDGKMVYEGRDRSGAITFVPAGVERLGAYRDVDLTYSALWIDPRSISPASEHLKDLPVLINKSDTVISALLKSLSSEISNGHIPDSAYVDHLIALVTLRIRGFADEPVPAPRHDSLGSRVVKRVRDYVDAHLDGDISLGDLADVAGVASDSFARRFKVTTGFAPYAYVLEERIRRSEALLCETDTTLSAIALACGFSSQSHFTTTFKRLRGVTPQAYRSKVIPES	not soluble
MRGSHHHHHHGSRVMVIGGDGYCGWATALHLSKKNYEVCIVDNLVRRLFDHQLGLESLTPIASIHDRISRWKALTGKSIELYVGDICDFEFLAESFKSFEPDSVVHFGEQRSAPYSMIDRSRAVYTQHNNVIGTLNVLFAIKEFGEECHLVKLGAMGEYGTPNIDIEEGYITITHNGRTDTLPYPKQASSFYHLSKVHDSHNIAFTCKAWGIRATDLNQGVVYGVKTDETEMHEELRNRLDYDAVFGTALNRFCVQAAVGHPLTVYGKGGQTRGYLDIRDTVQCVEIAIANPAKAGEFRVFNQFTEQFSVNELASLVTKAGSKLGLDVKKMTVPNPRVEAEEHYYNAKHTKLMELGLEPHYLSDSLLDSLLNFAVQFKDRVDTKQIMPSVSWKKIGVKTKSMTT	soluble
MSLKLPVPSPMRLAVTHEGRSIIYIPSPEYAVASGRLEPAWLEVFYNPAMEFNRDVSVVAASALRRTGLLTRSGVAFDAHAGVGVRGVRYAVEAGYVKVIMNDINPKASMLAALNARANGLEPGSYMIFNKESNSLMFHLSRERPTPVSLIDIDPYGSPAPFVDAALALSGKGTVVAMTATDLAVLEGGKARAAVRRYMLRSVSKTPVSKETGLRVLLGYVARVAAAHDKAVKPLLAYYADHYYRVYVAVERGARRSDSMLEENLGRLVYCPETGVALALSYAEDPASACGGSYVVAADPAWIGSLGDQAFLEAMLNIAVEAVWLGTRPRVEKLLNTLHGEAPLSPRSIYVSLTSVASKARVNTPKKSKVVELLRSMGYRAVATHFSGEGVRTDAPWGEVLEAVVKLGSSGEGHHHHHH	not soluble
MCLEPIIAPISSELLEQELTADRFLRMTNKAGNEIYVFTAEEAPHCMKEVGRLREEAFRHYGGGTGKAIDIDEFDTMPGSYKQLIVWDPQNKAILGGYRFIYGRDVAFDTDGKPLLATAEMFRFSDAFLHDYLPYTVELGRSFVSLQYQSTRMGTKAIFVLDN	not soluble
DLDLEMLAPYIPMDDDFQLR	soluble
MNVIVEISDRLGMDYYFVSVTTTAKSLQLNSPKKYYKIWHQEIPYHQITEWHLTQQEDIQEISFAWQETFYRFVDYGTGIVPYLTQFCKVMR	not soluble
MKETCDLLAFGAHPDDVEIGMGGTIAKYVRRGYRIVICDLTQAELSSNGTVDERQREAAEAARRLGVSERFNLGLPDRGLYVEEEAIRQIAAVIRRYRPRLVFAPYWEDRHPDHGRCARLVEEAVFSAGIRRYGAGELGDAHRVRAVYYYMINAFCRPHFLIDISETINDKLDSLRAYESQFQKRPGSVDTPLTNGYIEMIESRERWFGQQIGAAYAEGFLTKTPIHLSNLFEEER	soluble
KILLKTSENGLDLEKPYYQAVIRRWQNKITDADTRRETVSAVSPKIILNDAPKWAVMLETEWQDGEWFEGRLAQEWLDKGVATNREQVAALETELKQKPAQLLIGVRAQTVPDRGVLRQIVRLSEAAQGGAVVQLLAEQGLSDDLSEKLEHWRNALAECGAAWLEPDRAAQEGRLKDQ	not soluble
SSPATVTEPLKAEPAEAPVPLLRVSPSSLQCEPGYLLPNSPVLGTGGVTGYEYLTNILSSKVYDVAYETPLQKAPKLSERLGVNVLKREDLQPVFSFKIRGAYNMMAKLPKEQLEKGVICSSAGNHAQGVALSAQRLGCDAVIVMPVTTPDIKKSVKRLGATVVLVGDSYDEAQAYAKKRAESEGRTFIPPFDHPDVIVGQGTVGMEINRQLKDNIHAIFVPVGGGGLIAGIAAYLKRVAPDIKIIGVEPLDANALALSLHHGQRVMLDQVGGFADGVAVKVVGEETYRLCEELIDGVVLVGRDAICASIKDMFEEKRSILEPAGALALAGAEAYCKYYGLKGENVVAITSGANMNFDRLRLVTELADVGRQREAVLATFMPEDPGSFKKFAEMVGPMNITEFKYRYNSDKERALVLYSVGLHTILELEGMVERMESADLQTINLTDNDLVKDHLRHLMGGRTNVHNELLCRFTFPEKPGALMKFLDAFSPRNISLFHYRAQGDTGANVLVGIQVPPDEVVEFEGRADSLGYEYAMESLNEAYQLIMH	soluble
MAGFVPLRWPISRMSSAVPRYIVGIDLGTTHTVVSYADGGDPSRIEPLFLEQLVAPGQVAGRPLLPSVRYHPATGELAEADTALPWPVEETAPGCRPVIGEFARQLGSRSRGRLVASAKSWLCHTGVDRTADILPWGAPDEVPKVSPVEASASFLRHVRCAWNHRFPAHPLETQDVIVTIPASFDDAARALTVEAARRAGLANVRLLEEPQAACYDFLWTYRGRLAETLEGVNLLLVCDVGGGTTDFTLIRVDAGGSEPELERIAVGNHLMLGGDNIDLTLAHRLEPRLTGAERSLSATDLILLAEQCRRAKETLLAEQGPESVTVTLLGKGGGLIGGARSVELSRHEVLEVVLDGFFPRVGADAVPERRSGVVEFGLPYAADPAITRHAAAFLIRHRNDAGGAAPDALLLNGGVFHSPVIAGRMAEVVGSWCGRTPVMLRNPRPDQAVAFGAVAFGLSRRGLAVRRIGGGSARAYYLLVGDANERSRRGVCILPRGAAEGQEWTVERRNFLLSVGRPVRFHVFSSTVDSGHAPGDLAVLDEAGFGELPPLAVALQAQEQGDVEVRLAARLTAIGTLQLQCVAVGDPEQRWDLELQLRGGGPRPTASASLHPRAAEAQEHIGLIFGKKTRQFGPKAVKTLRNDLEKILGKREDWDTALCRELYAALLEGAPHRRRSADHERLWLSLAGYCLRPGFGAPLDDWRVGQVWNLYSQGLQFVNEAQNWSEWWIVWRRIAGGLRAEAQQRLFADVAGFIDPVRARRGNAEALAKKRAFEDMVRLAASLERLSAGDKTMLGGWLVQRLDKAPDSAELWWALGRVGARAPFHGSAHNLVAREVVEDWVELALQRDWKRQGFVAFAATLLARLTGDRERDLDATLRNRVAEKLVASSAPEIWLELVTEVRGLDASDEKRIFGEGLPPGLRLVDSAWGALEHHHHHH	not soluble
MSLTVVQLTDIHFQWPYPYVTKKKLASIVEKVNEINPDFIFLTGDFISRYRTYNISKYNTETIAFYLGQLRAKRGIYAIQGNNDRCAGDMLLKAFKENGVRMLMNEGIIDDDISITGILSSKNIDICNTWLNQTKIPDAPLKILLSHQPDTALVTYPFFDLQFSGHTHGGQCIAPFGIGPILHPKMGHKFIVGVYKIGNMILHVSTGIGISPLPKPLVRFNNIAEVSVIRVVPEEGHHHHHH	not soluble
SNAMKVKIYTRNGCPYCVWAKQWFEENNIAFDETIIDDYAQRSKFYDEMNQSGKVIFPISTVPQIFIDDEHIGGFTELKANADKILNKK	soluble
MKFLILSVSAGGGHIHAAFALKKYIAKYLEGSQVKMLDTIKYLNPFLDKVLIGGYLKTLKVSPALFGKLYNFTEKDDNLASLSNKINEFMAYKLIPIIEDFNPDVIICTHPFPTEMVSILKSKESLKTPMLCILTDYAPHSFWIRPQVNSYVVSNSDMVDEMVRRGVNRENIYDLGIPVDPDFIRNFDKIETLNELNLSLNKKTILIMGGSLGIGKIEDIYEALSKSRANIQIIIITGNNKKLYSKLLELAEDSYVETRILGYTRDVNRYMQASDLLLTKPGGLTITEALICRVPLAVFSPIPGQEEKNEDFLLKHNLAISIRDSENCLGIIESLISNPELLQAMKDNCNKFSKPSSGKDICNLLINLINKNQKIDVNNADYRN	not soluble
MEKSLVDTVYALKDEVQELRQDNKKMKKSLEEEQRARKDLEKLVRKVLKNMNDPAWDETNL	soluble
